Three molecules from patent US12098186 (NATIONAL TECHNOLOGY AND ENGINEERING SOLUTIONS OF SANDIA, dated 2024) can be followed below.

In test [1] the target is T1, SARS-CoV-2 receptor-binding domain (RBD) of the spike protein (SARS-CoV-2, UniProt P0DTC2 319-541).
The target of test [2] is T1, SARS-CoV-2 receptor-binding domain …. The source holds these as a separate data set.
Test [3] shares this target. Put plainly: cell-based or functional assay.
Test [4] shares this target. The source holds these as a separate data set.
The target is the same in test [5]. This is another data set of the same source.

Where two headings read alike, the source gives them in different places.

B1: SP1B4-U biparatopic nanobody construct (SP1B4 and U nanobodies on heterodimeric human IgG1 Fc) (bispecific antibody, V domains shown, not shown: a dimerising Fc or GST)
V domain 1: EVQLQASGGGFVQPGGSLRLSCAASGRAFGIYRMGWFRQAPGKEREFVSAISGGDAGHTRYADSVKGRFTISRDNSKNTVYLQMNSLRAEDTATYYCAYWDYNGVVPFFKYWGQGTQVTVSS
V domain 2: QVQLVESGGGLVQPGGSLRLSCAASGFTLDYYAIGWFRQAPGKEREGVSCISSSGGSTHFADSVKGRFTISRDNAKNTVYLQMNSLIPEDTAVYYCAAQSGSYYWCGSDWHEYEYWGQGTQVTVSS
Consider B1, for which the Kd in test [1] and in test [2] was 2200 pM throughout. The “Neutralization EC50” value in test [3] came out at 25 pM.

B2: SP1D9-U biparatopic nanobody construct (SP1D9 and U nanobodies on heterodimeric human IgG1 Fc) (bispecific antibody, V domains shown, not shown: a dimerising Fc or GST)
V domain 1: EVQLQASGGGFVQPGGSLRLSCAASGRYDSYVRMGWFRQAPGKEREFVSAISGGGDKSTWYADSVKGRFTISRDNSKNTVYLQMNSLRAEDTATYYCANAQLGPAYDKIGYWGQGTQVTVSS
V domain 2: B1 V domain 2
In test [4], B2 displayed a Kd of 2000 pM.

B3: SP3H4-U biparatopic nanobody construct (SP3H4 and U nanobodies on heterodimeric human IgG1 Fc) (bispecific antibody, V domains shown, not shown: a dimerising Fc or GST)
V domain 1: EVQLQASGGGFVQPGGSLRLSCAASGTAYGWSRMGWFRQAPGKEREFVSAISRASAGYAQYADSVKGRFTISRDNSKNTVYLQMNSLRAEDTATYYCAFPLHDQGEPYGWYWGQGTQVTVSS
V domain 2: B1 V domain 2
As to B3, the Kd in test [1] and in test [5] was 790 pM in each case. Moreover, the “Neutralization EC50” value in test [3] worked out at 23 pM.
